Tests used:
human GIP receptor [1] = biological target: T1, human GIP receptor (human, UniProt P48546 22-466); experiment: cell-based or functional assay
T1 sequence (looked up): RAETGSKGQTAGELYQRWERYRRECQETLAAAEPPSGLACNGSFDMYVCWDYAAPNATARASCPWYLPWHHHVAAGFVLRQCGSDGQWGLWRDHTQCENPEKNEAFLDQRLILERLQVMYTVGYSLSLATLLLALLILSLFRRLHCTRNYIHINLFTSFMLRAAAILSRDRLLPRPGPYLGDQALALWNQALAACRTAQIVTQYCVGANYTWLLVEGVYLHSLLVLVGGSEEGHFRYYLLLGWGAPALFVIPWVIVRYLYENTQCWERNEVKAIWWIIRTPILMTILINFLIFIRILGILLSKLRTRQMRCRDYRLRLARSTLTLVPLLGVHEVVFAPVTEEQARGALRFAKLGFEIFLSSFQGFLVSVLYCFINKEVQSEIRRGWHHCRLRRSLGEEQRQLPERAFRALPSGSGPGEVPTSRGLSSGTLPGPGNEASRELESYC

human glucagon receptor = human glucagon receptor (human, UniProt P47871 26-477); experiment: cell-based or functional assay
human GLP-1 receptor [2] = biological target: human GLP-1 receptor (human, UniProt P43220 24-463); experiment: cell-based or functional assay
human GLP-1 receptor [3] = biological target: T2, human GLP-1 receptor (human, UniProt P43220 24-463); experiment: SPA competition vs [125I]-GLP-1, hGLP-1R membranes
T2 construct: whole, on cells; also called hGLP-1R; human glucagon-like peptide-1 receptor
Description: The binding buffer contains 25 mM HEPES, pH 7.4, 2.5 mM CaCl₂, 1 mM MgCl₂, 0.1% (w/v) bacitracin, 0.003% (w/v) TWEEN®-20, and Roche Complete™ Protease Inhibitors without EDTA.
(§1) Data are analyzed using four-parameter (curve maximum, curve minimum, IC₅₀, Hill slope) nonlinear regression routines (Genedata Screener, version 12.0.4, Genedata AG, Basal, Switzerland). […] Values for Kᵢ are reported as the geometric mean, with error expressed as the standard error of the mean (SEM) and n is equal to the number of independent replicates (determined in assays performed on different days). Geometric Means are calculated as follows: […]

human GIP receptor [4] = biological target: T3, human GIP receptor (human, UniProt P48546 22-466); experiment: SPA competition vs [125I]-GIP, hGIPR membranes
T3 construct: whole, on cells; also called hGIPR; human glucose-dependent insulinotropic polypeptide receptor
T3 sequence (looked up): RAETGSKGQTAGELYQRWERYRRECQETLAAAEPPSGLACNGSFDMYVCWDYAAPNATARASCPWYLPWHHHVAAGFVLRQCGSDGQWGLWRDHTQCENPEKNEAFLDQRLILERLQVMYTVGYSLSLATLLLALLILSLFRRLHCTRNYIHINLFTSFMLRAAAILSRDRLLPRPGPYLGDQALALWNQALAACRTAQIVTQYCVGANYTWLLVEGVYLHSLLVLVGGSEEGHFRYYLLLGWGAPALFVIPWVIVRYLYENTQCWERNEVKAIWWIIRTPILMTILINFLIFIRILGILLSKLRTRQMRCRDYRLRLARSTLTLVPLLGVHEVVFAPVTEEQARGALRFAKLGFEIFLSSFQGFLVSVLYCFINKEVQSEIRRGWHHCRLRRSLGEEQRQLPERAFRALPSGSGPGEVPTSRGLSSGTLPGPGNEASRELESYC
Description: The binding buffer contains 25 mM HEPES, pH 7.4, 2.5 mM CaCl₂, 1 mM MgCl₂, 0.1% (w/v) bacitracin, 0.003% (w/v) TWEEN®-20, and Roche Complete™ Protease Inhibitors without EDTA. […] Plates are sealed and mixed on a plate shaker (setting 6) for 1 minute and read with a PerkinElmer Trilux MicroBeta® scintillation counter after 2.5 to 12 hours of incubation/settling time at room temperature.
as §1

Row | Binder | EC50, cAMP (human GIP receptor [1]) | Emax, cAMP (human GIP receptor [1]) | EC50, cAMP (human glucagon receptor) | EC50, cAMP (human GLP-1 receptor [2]) | Ki (human GLP-1 receptor [3]) | Ki (human GIP receptor [4])
1 | YXEGTXTSDXSIXLDXKAQXEFIXXLIEGXKSSGAPPPS (Aib2, αMeF(2F)6, 4Pal10, αMeL13, Orn16, Aib20, D-Glu24, αMeY25, Orn30, K17 and K31: K(AEEA2-(γ-Glu)-CO-(CH2)12-CO2H), C-terminal NH2) [Example 152] | 0.0416 nM | 97.9% | > 9950 nM | 3.91 nM |  | 
2 | YXEGTXTSDXSIXLDXKAQXEFIXXLIEGGKSSGAPPPX (Aib2, αMeF(2F)6, 4Pal10, αMeL13, Orn16, Aib20, D-Glu24, αMeY25, Orn39, K17 and K31: K(AEEA2-(γ-Glu)-CO-(CH2)12-CO2H), C-terminal NH2) [Example 154] | 0.0299 nM | 96.6% | > 9950 nM | 1.69 nM |  | 
3 | YXEGTXTSDXSIXLDXKAQXKFIXXLIEGGPSSGAPPPS (Aib2, αMeF(2F)6, 4Pal10, αMeL13, Orn16, Aib20, D-Glu24, αMeY25, K17 and K21: K(AEEA2-(γ-Glu)-CO-(CH2)12-CO2H), C-terminal NH2) [Example 15] | 0.0133 nM |  | > 9950 nM | 0.995 nM |  | 
4 | YXEGTXTSDXSIXLDXKAQXEFIKXLIEGGPSSGAPPPS (Aib2, αMeF(2F)6, 4Pal10, αMeL13, Orn16, Aib20, αMeY25, K17 and K24: K(AEEA2-(γ-Glu)-CO-(CH2)12-CO2H), C-terminal NH2) [Example 16] | 0.0113 nM |  | > 9950 nM | 0.245 nM |  | 
5 | YXEGTXTSDXSIXLDXKAQXEFIXXLIKGGPSSGAPPPS (Aib2, αMeF(2F)6, 4Pal10, αMeL13, Orn16, Aib20, D-Glu24, αMeY25, K17 and K28: K(AEEA2-(γ-Glu)-CO-(CH2)12-CO2H), C-terminal NH2) [Example 17] | 0.0129 nM |  | > 9950 nM | 1.57 nM |  | 
6 | YXEGTXTSDXSIXLDXKAQXEFIXXLIEGKPSSGAPPPS (Aib2, αMeF(2F)6, 4Pal10, αMeL13, Orn16, Aib20, D-Glu24, αMeY25, K17 and K30: K(AEEA2-(γ-Glu)-CO-(CH2)12-CO2H), C-terminal NH2) [Example 18] | 0.0226 nM | 97.1% | > 9950 nM | 5.06 nM |  | 
7 | YXEGTXTSDXSIXLDXKAQXEFIXXLIEGGKSSGAPPPS (Aib2, αMeF(2F)6, 4Pal10, αMeL13, Orn16, K17(Z1), Aib20, D-Glu24, αMeY25, K31(Z1), C-term NH2; Z1=AEEA3-(γ-Glu)-CO-(CH2)12-CO2H) |  |  |  |  | 2.66 nM | 0.0653 nM
8 | YXEGTXTSDXSIXLDXKAQXEFIXXLIEGGKSSGAPPPS (Aib2, αMeF(2F)6, 4Pal10, αMeL13, Orn16, K17(Z1), Aib20, D-Glu24, αMeY25, K31(Z1), C-term NH2; Z1=AEEA2-(εK)-(γ-Glu)-CO-(CH2)12-CO2H) |  |  |  |  | 2.81 nM | 0.131 nM
9 | YXEGTXTSDXSIXLDXKAQXEFIXXLIEGGKSSGAPPPS (Aib2, αMeF(2F)6, 4Pal10, αMeL13, Orn16, K17(Z1), Aib20, D-Glu24, αMeY25, K31(Z1), C-term NH2; Z1=(εK)-AEEA2-(γ-Glu)-CO-(CH2)12-CO2H) |  |  |  |  | 2.22 nM | 0.171 nM
10 | YXEGTXTSDXSIXLDXKAQXEFIXXLIEGGKSSGAPPPS (Aib2, αMeF(2F)6, 4Pal10, αMeL13, Orn16, K17(Z1), Aib20, D-Glu24, αMeY25, K31(Z1), C-term NH2; Z1=AEEA2-(γ-Glu)-CO-(CH2)12-CO2H) |  |  |  |  | 2.33 nM | 0.088 nM
11 | YXEGTXTSDXSIXLDXKAQXEFIXXLIKGGPSSGAPPPS (Aib2, αMeF(2F)6, 4Pal10, αMeL13, Orn16, K17(Z1), Aib20, D-Glu24, αMeY25, K28(Z1), C-term NH2; Z1=AEEA2-(γ-Glu)-CO-(CH2)10-CH3) |  |  |  |  | 0.268 nM | 0.0415 nM
12 | YXEGTXTSDXSIXLDXKAQXEFIXXLIEGKPSSGAPPPS (Aib2, αMeF(2F)6, 4Pal10, αMeL13, Orn16, K17(Z1), Aib20, D-Glu24, αMeY25, K30(Z1), C-term NH2; Z1=AEEA2-(γ-Glu)-CO-(CH2)12-CO2H) |  |  |  |  | 8.41 nM | 0.0769 nM
13 | YXEGTXTSDXSIXLDXKAQXEFIXXLIKGGPSSGAPPPS (Aib2, αMeF(2F)6, 4Pal10, αMeL13, Orn16, K17(Z1), Aib20, D-Glu24, αMeY25, K28(Z1), C-term NH2; Z1=AEEA2-(γ-Glu)-CO-(CH2)12-CO2H) |  |  |  |  | 3.18 nM | 0.0649 nM
14 | YXEGTXTSDXSIXLDXKAQXKFIXXLIEGGPSSGAPPPS (Aib2, αMeF(2F)6, 4Pal10, αMeL13, Orn16, K17(Z1), Aib20, K21(Z1), D-Glu24, αMeY25, C-term NH2; Z1=AEEA2-(γ-Glu)-CO-(CH2)12-CO2H) |  |  |  |  | 2.11 nM | 0.0629 nM
15 | YXEGTXTSDXSKXLDXKAQXEFIXXLIEGGPSSGAPPPS (Aib2, αMeF(2F)6, 4Pal10, K12(Z1), αMeL13, Orn16, K17(Z1), Aib20, D-Glu24, αMeY25, C-term NH2; Z1=AEEA2-(γ-Glu)-CO-(CH2)12-CO2H) |  |  |  |  | 3.01 nM | 0.0972 nM
16 | YXEGTXTSDXSIXLDXKAQXEFIXXLIEGGKSSGAPPPS (Aib2, αMeF(2F)6, 4Pal10, αMeL13, Orn16, K17(Z1), Aib20, D-Glu24, αMeY25, K31(Z1), C-term NH2; Z1=(γ-Glu)-AEEA2-CO-(CH2)12-CO2H) |  |  |  |  | 2.06 nM | 0.108 nM
